Results taken from patent US10047131B2, “Peptides and combination of peptides for use in immunotherapy against ovarian cancer and other cancers” (immatics biotechnologies GmbH, priority 2015, dated 2018).

What follows are substances tested against HLA-A*02:01 (Homo sapiens, UniProt P04439, D140Y/D185E/D98H/E176V/E277Q/G131W/G231S/I119V/I121R/I166T/I218V/L300P/L318F/N151K/N90K/P208A/P217A/Q86G/Q94H/R138H/R169H/T345S) (assay: MHC binding assay (UV-ligand exchange, ELISA of exchange yield)). Conditions: binding to HLA-A*02:01, UV-ligand exchange.
From the text: Candidate peptides for T cell based therapies according to the present invention were further tested for their MHC binding capacity (affinity). The individual peptide-MHC complexes were produced by UV-ligand exchange, where a UV-sensitive peptide is cleaved upon UV-irradiation, and exchanged with the peptide of interest as analyzed. Only peptide candidates that can effectively bind and stabilize the peptide-receptive MHC molecules prevent dissociation of the MHC complexes. To determine the yield of the exchange reaction, an ELISA was performed based on the detection of the light chain (p2m) of stabilized MHC complexes. The assay was performed as generally described in Rodenko et al. (Rodenko et al., 2006).
96 well MAXISorp plates (NUNC) were coated over night with 2 μg/ml streptavidin in PBS at room temperature, washed 4× and blocked for 1 h at 37° C. in 2% BSA containing blocking buffer. […] Peptide-MHC monomers of the UV-exchange reaction were diluted 100 fold in blocking buffer. Samples were incubated for 1h at 37° C., washed four times, incubated with 2 μg/ml HRP conjugated anti-β2m for 1h at 37° C., washed again and detected with TMB solution that is stopped with […]. Absorption was measured at 450 nm. Candidate peptides that show a high exchange yield (preferably higher than 50%, most preferred higher than 75%) are generally preferred for a generation and production of antibodies or fragments thereof, and/or T cell receptors or fragments thereof, as they show sufficient avidity to the MHC molecules and prevent dissociation of the MHC complexes.

Substance | Peptide exchange (MHC class I binding score, peptide exchange yield)
67 (TLLAEALVTV; listed as Homo sapiens) [compound 67] | “+++” (≥50 = +++)
68 (SLMELPRGLFL; listed as Homo sapiens) [compound 68] | “++++” (≥75% = ++++)
69 (FQLDPSSGVLVTV; listed as Homo sapiens) [compound 69] | “+++” (≥50 = +++)
70 (GLLDYPVGV; listed as Homo sapiens) [compound 70] | “+++” (≥50 = +++)
71 (GILARIASV; listed as Homo sapiens) [compound 71] | “+++” (≥50 = +++)
72 (SLLELDGINL; listed as Homo sapiens) [compound 72] | “+++” (≥50 = +++)
73 (NIFDLQIYV; listed as Homo sapiens) [compound 73] | “+++” (≥50 = +++)
74 (ALLDPEVLSIFV; listed as Homo sapiens) [compound 74] | “+++” (≥50 = +++)
75 (GLLEVMVNL; listed as Homo sapiens) [compound 75] | “+++” (≥50 = +++)
76 (ILIDSIYKV; listed as Homo sapiens) [compound 76] | “+++” (≥50 = +++)
77 (ILVEADGAWVV; listed as Homo sapiens) [compound 77] | “++++” (≥75% = ++++)
78 (SLFSSLEPQIQPV; listed as Homo sapiens) [compound 78] | “+++” (≥50 = +++)

Continued, values first:

Peptide exchange (MHC class I binding score, peptide exchange yield) | Substance
“+++” (≥50 = +++) | 79 (SLFIGEKAVLL; listed as Homo sapiens) [compound 79]
“++” (≥20% = ++) | 80 (FLYDNLVESL; listed as Homo sapiens) [compound 80]
“++” (≥20% = ++) | 81 (FLFSQLQYL; listed as Homo sapiens) [compound 81]
“+++” (≥50 = +++) | 82 (FLSSVTYNL; listed as Homo sapiens) [compound 82]
“+++” (≥50 = +++) | 83 (ILAPTVMMI; listed as Homo sapiens) [compound 83]
“++” (≥20% = ++) | 84 (VTFGEKLLGV; listed as Homo sapiens) [compound 84]
“+++” (≥50 = +++) | 85 (KMSELRVTL; listed as Homo sapiens) [compound 85]
“+++” (≥50 = +++) | 86 (NLIGKIENV; listed as Homo sapiens) [compound 86]
“++” (≥20% = ++) | 87 (ALPEAPAPLLPHIT; listed as Homo sapiens) [compound 87]
“+++” (≥50 = +++) | 88 (FLLVGDLMAV; listed as Homo sapiens) [compound 88]
“++++” (≥75% = ++++) | 89 (YILPTETIYV; listed as Homo sapiens) [compound 89]
“+++” (≥50 = +++) | 90 (TLLQIIETV; listed as Homo sapiens) [compound 90]
“++++” (≥75% = ++++) | 91 (IMQDFPAEIFL; listed as Homo sapiens) [compound 91]
“++” (≥20% = ++) | 92 (YLIPFTGIVGL; listed as Homo sapiens) [compound 92]
“++” (≥20% = ++) | 93 (LLQAIKLYL; listed as Homo sapiens) [compound 93]
“++” (≥20% = ++) | 94 (YLIDIKTIAI; listed as Homo sapiens) [compound 94]
